Reference: paper PMC1747184 (Nucleic Acids Research, 2006)

Molecular target: MutSα (MSH2–MSH6) (human (endogenous in HCT-116), UniProt P43246;P52701)
Experiment: pull-down

MutSα (MSH2–MSH6), sequence (P43246 whole entry, chain 1 of 2): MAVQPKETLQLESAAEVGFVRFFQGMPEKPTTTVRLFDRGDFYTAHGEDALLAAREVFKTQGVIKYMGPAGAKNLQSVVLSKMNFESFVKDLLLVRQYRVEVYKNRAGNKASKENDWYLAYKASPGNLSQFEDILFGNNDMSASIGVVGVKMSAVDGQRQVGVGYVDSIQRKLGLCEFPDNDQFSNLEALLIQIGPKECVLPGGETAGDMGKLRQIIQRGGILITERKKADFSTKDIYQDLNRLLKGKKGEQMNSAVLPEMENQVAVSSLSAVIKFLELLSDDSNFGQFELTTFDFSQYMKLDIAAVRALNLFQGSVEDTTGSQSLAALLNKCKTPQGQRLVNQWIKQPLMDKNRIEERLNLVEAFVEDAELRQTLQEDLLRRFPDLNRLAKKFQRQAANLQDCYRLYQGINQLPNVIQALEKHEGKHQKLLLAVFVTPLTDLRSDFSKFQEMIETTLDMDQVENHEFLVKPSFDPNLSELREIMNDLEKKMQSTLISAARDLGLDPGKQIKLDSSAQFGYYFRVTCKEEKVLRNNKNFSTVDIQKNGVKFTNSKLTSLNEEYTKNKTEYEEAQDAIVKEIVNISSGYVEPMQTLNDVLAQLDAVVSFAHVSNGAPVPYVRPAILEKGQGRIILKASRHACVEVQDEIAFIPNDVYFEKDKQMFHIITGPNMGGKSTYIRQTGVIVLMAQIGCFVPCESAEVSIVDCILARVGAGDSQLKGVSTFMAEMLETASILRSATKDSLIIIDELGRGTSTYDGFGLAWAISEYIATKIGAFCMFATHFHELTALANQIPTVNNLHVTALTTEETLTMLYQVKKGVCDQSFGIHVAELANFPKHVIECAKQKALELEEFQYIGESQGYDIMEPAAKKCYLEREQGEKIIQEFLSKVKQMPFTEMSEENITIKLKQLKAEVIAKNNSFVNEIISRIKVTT
MutSα (MSH2–MSH6), sequence (P52701 whole entry, chain 2 of 2): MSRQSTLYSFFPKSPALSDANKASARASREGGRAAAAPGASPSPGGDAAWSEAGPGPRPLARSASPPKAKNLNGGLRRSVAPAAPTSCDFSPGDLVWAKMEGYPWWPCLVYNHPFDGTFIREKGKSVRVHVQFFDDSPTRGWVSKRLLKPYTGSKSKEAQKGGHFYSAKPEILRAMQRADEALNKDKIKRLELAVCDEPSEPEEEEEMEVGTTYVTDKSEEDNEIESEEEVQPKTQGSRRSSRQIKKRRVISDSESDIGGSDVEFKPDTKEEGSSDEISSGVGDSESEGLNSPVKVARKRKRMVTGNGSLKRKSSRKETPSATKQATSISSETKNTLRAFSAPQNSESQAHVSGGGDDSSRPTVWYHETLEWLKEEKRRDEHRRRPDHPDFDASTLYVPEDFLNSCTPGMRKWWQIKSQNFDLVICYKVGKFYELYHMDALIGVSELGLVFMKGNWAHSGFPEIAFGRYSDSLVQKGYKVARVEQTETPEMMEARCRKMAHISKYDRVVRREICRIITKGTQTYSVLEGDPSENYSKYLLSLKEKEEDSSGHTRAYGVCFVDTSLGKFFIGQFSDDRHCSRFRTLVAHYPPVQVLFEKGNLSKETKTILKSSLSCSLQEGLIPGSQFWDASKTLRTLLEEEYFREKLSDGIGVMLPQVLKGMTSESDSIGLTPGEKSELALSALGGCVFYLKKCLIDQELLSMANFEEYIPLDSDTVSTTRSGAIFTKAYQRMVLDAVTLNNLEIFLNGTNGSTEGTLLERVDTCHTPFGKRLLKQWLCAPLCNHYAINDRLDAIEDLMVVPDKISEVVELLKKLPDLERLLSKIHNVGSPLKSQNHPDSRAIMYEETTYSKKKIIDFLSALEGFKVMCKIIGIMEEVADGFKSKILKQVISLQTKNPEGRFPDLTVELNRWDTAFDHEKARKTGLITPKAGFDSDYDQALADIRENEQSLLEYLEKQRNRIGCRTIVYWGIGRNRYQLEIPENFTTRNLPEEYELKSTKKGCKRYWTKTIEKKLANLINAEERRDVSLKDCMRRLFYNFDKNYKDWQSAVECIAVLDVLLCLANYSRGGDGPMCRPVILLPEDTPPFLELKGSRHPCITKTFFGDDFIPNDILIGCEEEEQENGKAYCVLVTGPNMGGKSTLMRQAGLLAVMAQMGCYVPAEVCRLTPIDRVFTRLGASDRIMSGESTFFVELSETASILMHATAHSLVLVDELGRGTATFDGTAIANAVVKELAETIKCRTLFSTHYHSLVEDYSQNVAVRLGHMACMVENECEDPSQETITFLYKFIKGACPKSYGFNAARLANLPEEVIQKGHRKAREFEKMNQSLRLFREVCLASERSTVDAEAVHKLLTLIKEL

B1: MutLα^(MLH1 A128P) (complex)
chain 1: MSFVAGVIRRLDETVVNRIAAGEVIQRPANAIKEMIENCLDAKSTSIQVIVKEGGLKLIQIQDNGTGIRKEDLDIVCERFTTSKLQSFEDLASISTYGFRGEALASISHVAHVTITTKTADGKCAYRPSYSDGKLKAPPKPCAGNQGTQITVEDLFYNIATRRKALKNPSEEYGKILEVVGRYSVHNAGISFSVKKQGETVADVRTLPNASTVDNIRSIFGNAVSRELIEIGCEDKTLAFKMNGYISNANYSVKKCIFLLFINHRLVESTSLRKAIETVYAAYLPKNTHPFLYLSLEISPQNVDVNVHPTKHEVHFLHEESILERVQQHIESKLLGSNSSRMYFTQTLLPGLAGPSGEMVKSTTSLTSSSTSGSSDKVYAHQMVRTDSREQKLDAFLQPLSKPLSSQPQAIVTEDKTDISSGRARQQDEEMLELPAPAEVAAKNQSLEGDTTKGTSEMSEKRGPTSSNPRKRHREDSDVEMVEDDSRKEMTAACTPRRRIINLTSVLSLQEEINEQGHEVLREMLHNHSFVGCVNPQWALAQHQTKLYLLNTTKLSEELFYQILIYDFANFGVLRLSEPAPLFDLAMLALDSPESGWTEEDGPKEGLAEYIVEFLKKKAEMLADYFSLEIDEEGNLIGLPLLIDNYVPPLEGLPIFILRLATEVNWDEEKECFESLSKECAMFYSIRKQYISEESTLSGQQSEVPGSIPNSWKWTVEHIVYKALRSHILPPKHFTEDGNILQLANLPDLYKVFERC
chain 2: MERAESSSTEPAKAIKPIDRKSVHQICSGQVVLSLSTAVKELVENSLDAGATNIDLKLKDYGVDLIEVSDNGCGVEEENFEGLTLKHHTSKIQEFADLTQVETFGFRGEALSSLCALSDVTISTCHASAKVGTRLMFDHNGKIIQKTPYPRPRGTTVSVQQLFSTLPVRHKEFQRNIKKEYAKMVQVLHAYCIISAGIRVSCTNQLGQGKRQPVVCTGGSPSIKENIGSVFGQKQLQSLIPFVQLPPSDSVCEEYGLSCSDALHNLFYISGFISQCTHGVGRSSTDRQFFFINRRPCDPAKVCRLVNEVYHMYNRHQYPFVVLNISVDSECVDINVTPDKRQILLQEEKLLLAVLKTSLIGMFDSDVNKLNVSQQPLLDVEGNLIKMHAADLEKPMVEKQDQSPSLRTGEEKKDVSISRLREAFSLRHTTENKPHSPKTPEPRRSPLGQKRGMLSSSTSGAISDKGVLRPQKEAVSSSHGPSDPTDRAEVEKDSGHGSTSVDSEGFSIPDTGSHCSSEYAASSPGDRGSQEHVDSQEKAPKTDDSFSDVDCHSNQEDTGCKFRVLPQPTNLATPNTKRFKKEEILSSSDICQKLVNTQDMSASQVDVAVKINKKVVPLDFSMSSLAKRIKQLHHEAQQSEGEQNYRKFRAKICPGENQAAEDELRKEISKTMFAEMEIIGQFNLGFIITKLNEDIFIVDQHATDEKYNFEMLQQHTVLQGQRLIAPQTLNLTAVNEAVLIENLEIFRKNGFDFVIDENAPVTERAKLISLPTSKNWTFGPQDVDELIFMLSDSPGVMCRPSRVKQMFASRACRKSVMIGTALNTSEMKKLITHMGEMDHPWNCPHGRPTMRHIANLGVISQN
- fold decrease of binding against wild-type MutLα: ~5 fold
